# Experimental data as given in US20120201746A1 (AbbVie / Abbott, published 2012).
# Positions count from the first letter of the chain named. Names may count otherwise. Like-named read-outs stand apart in the source and are kept apart here.
# B1: ½ IL12/IL18/PGE2 TVD (other)
# heavy: EVTLRESGPALVKPTQTLTLTCTFSGFSLSKSVMGVSWIRQPPGKALEWLAHIYWDDDKYYNPSLKSRLTISKDTSKNQVVLTMTNMDPVDTATYYCARRGIRSAMDYWGQGTTVTVSSASTKGPEVQLVQSGTEVKKPGESLKISCKGSGYTVTSYWIGWVRQMPGKGLEWMGFIYPGDSETRYSPTFQGQVTISADKSFNTAFLQWSSLKASDTAMYYCARVGSGWYPYTFDIWGQGTMVTVSSASTKGPEVQLVQSGAEVKKPGASVKVSCKASGYTFTKYWLGWVRQAPGQGLEWMGDIYPGYDYTHYNEKFKDRVTLTTDTSTSTAYMELRSLRSDDTAVYYCARSDGSSTYWGQGTLVTVSSASTKGPSVFPLAPSSKSTSGGTAALGCLVKDYFPEPVTVSWNSGALTSGVHTFPAVLQSSGLYSLSSVVTVPSSSLGTQTYICNVNHKPSNTKVDKKVEPKSCDKTHTSPPSPAPELLGGPSVFLFPPKPKDTLMISRTPEVTCVVVDVSHEDPEVKFNWYVDGVEVHNAKTKPREEQYNSTYRVVSVLTVLHQDWLNGKEYKCKVSNKALPAPIEKTISKAKGQPREPQVYTLPPSREEMTKNQVSLTCLVKGFYPSDIAVEWESNGQPENNYKTTPPVLDSDGSFRLYSKLTVDKSRWQQGNVFSCSVMHEALHNHYTQKSLSLSPGK
# light: DIVMTQSPDSLAVSLGERATINCKASQSVSNDVAWYQQKPGQPPKLLIYYASNRYTGVPDRFSGSGSGTDFTLTISSLQAEDVAVYYCQQDYNSPWTFGGGTKVEIKRTVAAPEIVMTQSPATLSVSPGERATLSCRASESISSNLAWYQQKPGQAPRLFIYTASTRATDIPARFSGSGSGTEFTLTISSLQSEDFAVYYCQQYNNWPSITFGQGTRLEIKRTVAAPDVLMTQTPLSLPVTPGEPASISCTSSQNIVHSNGNTYLEWYLQKPGQSPQLLIYKVSNRFSGVPDRFSGSGSGTDFTLKISRVEAEDVGVYYCFQVSHVPYTFGGGTKVEIKRTVAAPSVFIFPPSDEQLKSGTASVVCLLNNFYPREAKVQWKVDNALQSGNSQESVTEQDSKDSTYSLSSTLTLSKADYEKHKVYACEVTHQGLSSPVTKSFNRGEC
# notes: Half TVD with hCg1-Mut18 (F405R, C226S, C229S); 78 % by SEC; also called Half IL12/IL18/PGE2 TVD; IL12/IL18/PGE2 TVD half-Ig
# B2: ½ IL1b DA1 Fc (Fc fusion)
# chain: EVQLLESGGGLVQPGGSLRLSCAASGFTFADEGMMWVRQAPGKGLEWVSRITYSGKNTYYADSVKGRFTISRDNSKNTLYLQMNSLRAEDTAVYYCAKYTGRILGHHLFDYWGQGTLVTVSSEPKSSDKTHTSPPSPAPELLGGPSVFLFPPKPKDTLMISRTPEVTCVVVDVSHEDPEVKFNWYVDGVEVHNAKTKPREEQYNSTYRVVSVLTVLHQDWLNGKEYKCKVSNKALPAPIEKTISKAKGQPREPQVYTLPPSREEMTKNQVSLTCLVKGFYPSDIAVEWESNGQPENNYKTTPPVLDSDGSFRLYSKLTVDKSRWQQGNVFSCSVMHEALHNHYTQKSLSLSPGK
# notes: Half domain antibody-Fc with Fc-Mut18; 82 % half-Ig by SEC; also called half IL1b DA1 Fc
# B3: ½ IL1b DA2 Fc (Fc fusion)
# chain: B2 chain with D31E, G33S, M34W, T52G, Y53Q, S54D, A61R, D62E, S63D, L104M
# notes: Half domain antibody-Fc with Fc-Mut18; 83 % half-Ig by SEC; also called half IL1b DA2 Fc
# B4: Anti-c-Met Ig (parental 5D5 anti-cMet antibody) (antibody, human IgG1, kappa)
# heavy: not shown
# light: DFMMSQSPSSLTVSVGEKVTVSCKSSQSLLYTSSQKNYLAWYQQKPGQSPKLLIYWASTRESGVPDRFTGSGSGTDFTLTITSVKADDLAVYYCQQYYAYPWTFGGGTKLELKRTVAAPSVFIFPPSDEQLKSGTASVVCLLNNFYPREAKVQWKVDNALQSGNSQESVTEQDSKDSTYSLSSTLTLSKADYEKHKVYACEVTHQGLSSPVTKSFNRGEC
# notes: Mouse 5D5 variable domains cloned into human Cg1 (z, non-a) and human Ck vectors; also called cMet mAb; wild-type c-Met antibody
# B5: cMet-Mut5 (antibody, human IgG1, kappa)
# heavy: QVQLQQSGPELVRPGASVKMSCRASGYTFTSYWLHWVKQRPGQGLEWIGMIDPSNSDTRFNPNFKDKATLNVDRSSNTAYMLLSSLTSADSAVYYCATYGSYVSPLDYWGQGTSVTVSSASTKGPSVFPLAPSSKSTSGGTAALGCLVKDYFPEPVTVSWNSGALTSGVHTFPAVLQSSGLYSLSSVVTVPSSSLGTQTYICNVNHKPSNTKVDKKVEPKSCDKTHTSPPSPAPELLGGPSVFLFPPKPKDTLMISRTPEVTCVVVDVSHEDPEVKFNWYVDGVEVHNAKTKPREEQYNSTYRVVSVLTVLHQDWLNGKEYKCKVSNKALPAPIEKTISKAKGQPREPQVYTLPPSREEMTKNQVSLTCLVKGFYPSDIAVEWESNGQPENNYKTTPAVLDSDGSFRLRSDLTVDKSRWQQGNVFSCSVMHEALHNHYTQKSLSLSPGK
# light: B4 light
# notes: Half-Ig; CH3 P395A, F405R, Y407R, K409D; 97.2 % half-Ig by SEC; also called cMetHC-Mut5
# B6: cMet-Mut19 (antibody, human IgG1, kappa)
# heavy: B5 heavy with A398P, R407F, D411K
# light: B4 light
# notes: Half-Ig; CH3 Y407R; 94.4 % half-Ig by SEC; also called cMetHC-Mut19
# B7: cMet-Mut13 (antibody, human IgG1, kappa)
# heavy: B5 heavy with R407F, R409Y
# light: B4 light
# notes: Half-Ig; CH3 P395A, K409D; 94.9 % half-Ig by SEC; also called cMetHC-Mut13
# B8: cMet-Mut11 (antibody, human IgG1, kappa)
# heavy: B5 heavy with R409Y, D411K
# light: B4 light
# notes: Half-Ig; CH3 P395A, F405R; 94.8 % half-Ig by SEC; also called cMetHC-Mut11; cMet half Ig mut11
# B9: cMet-Mut18 (antibody, human IgG1, kappa)
# heavy: B5 heavy with A398P, R409Y, D411K
# light: B4 light
# notes: Half-Ig; CH3 F405R; 94.5 % half-Ig by SEC; also called cMetHC-Mut18; cMet half Ig mut18
# B10: cMet-Mut18-QL (antibody, human IgG1, kappa)
# heavy: B5 heavy with T252Q, A398P, R409Y, D411K, M430L
# light: B4 light
# notes: also called cMetHC-Mut18-QL
# B11: cMet-Mut14 (antibody, human IgG1, kappa)
# heavy: B5 heavy with A398P, D411K
# light: B4 light
# notes: Half-Ig; CH3 F405R, Y407R; 96.1 % half-Ig by SEC; also called cMetHC-Mut14; cMet half Ig mut14
# B12: cMet-Mut1 (antibody, human IgG1, kappa)
# heavy: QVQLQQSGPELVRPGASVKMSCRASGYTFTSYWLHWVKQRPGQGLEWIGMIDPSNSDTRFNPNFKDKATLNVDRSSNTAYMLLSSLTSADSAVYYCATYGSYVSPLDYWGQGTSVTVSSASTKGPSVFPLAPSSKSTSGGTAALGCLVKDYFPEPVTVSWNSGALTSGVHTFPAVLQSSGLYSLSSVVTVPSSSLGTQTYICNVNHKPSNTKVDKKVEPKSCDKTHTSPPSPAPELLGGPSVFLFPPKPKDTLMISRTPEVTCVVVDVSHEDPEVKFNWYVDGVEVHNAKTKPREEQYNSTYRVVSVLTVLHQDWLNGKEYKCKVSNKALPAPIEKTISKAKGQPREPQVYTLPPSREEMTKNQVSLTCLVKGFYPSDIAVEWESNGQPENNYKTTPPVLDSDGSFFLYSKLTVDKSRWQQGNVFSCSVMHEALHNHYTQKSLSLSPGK
# light: B4 light
# notes: also called cMetHC-Mut1
# B13: cMet-Mut10 (antibody, human IgG1, kappa)
# heavy: B5 heavy with R409Y
# light: B4 light
# notes: Half-Ig; CH3 P395A, F405R, K409D; 97.5 % half-Ig by SEC; also called cMetHC-Mut10; cMet half Ig mut10
# B14: cMet-Mut18-GTv2 (antibody, human IgG1, kappa)
# heavy: B5 heavy with T309A, E382A, A398P, R409Y, D411K, N436A
# light: B4 light
# notes: also called cMetHC-Mut18-GTv2
# B15: cMet-Mut20 (antibody, human IgG1, kappa)
# heavy: B5 heavy with A398P, R407F, R409Y
# light: B4 light
# notes: Half-Ig; CH3 K409D; 91.7 % half-Ig by SEC; also called cMetHC-Mut20
# B16: cMet-Mut3 (antibody, human IgG1, kappa)
# heavy: B5 heavy with T368F, L370F
# light: B4 light
# notes: Half-Ig; CH3 T366F, L368F, P395A, F405R, Y407R, K409D; 82.4 % half-Ig by SEC; also called cMetHC-Mut3
# B17: cMet-Mut6 half-Ig binding protein (antibody)
# heavy: B5 heavy with C222S, S231C
# light: B4 light
# notes: Half-Ig; CH3 P395A, F405R, Y407R, K409D; 100 % half-Ig by SEC; also called cMetHC-Mut6
# Legend:
# recombinant human IL-18 [1] = target: T1, recombinant human IL-18 (human, UniProt Q14116 37-193); experiment: SPR (BIAcore)
# T1 construct: Human is stated for the KG-1 bioassay; also called rhIL-18; rIL-18
# Procedure: (§1) The BIAcore® assay (BIAcore®, Inc, Piscataway, N.J.) determines the affinity of antibodies with kinetic measurements of on-rate and off-rate constants. Binding of antibodies to a target antigen (for example, a purified recombinant target antigen) is determined by surface plasmon resonance-based measurements with a BIAcore® 1000 or 3000 instrument (BIAcore® AB, Uppsala, Sweden) using running HBS-EP (10 mM HEPES [pH 7.4], 150 mM NaCl, 3 mM EDTA, and 0.005% surfactant P20) at 25° C. […] Unreacted moieties on the biosensor surface are blocked with ethanolamine. Modified carboxymethyl dextran surface in flowcell 2 and 4 is used as a reaction surface. Unmodified carboxymethyl dextran without goat anti-mouse IgG in flow cell 1 and 3 is used as the reference surface. For kinetic analysis, rate equations derived from the 1:1 Langmuir binding model are fitted simultaneously to association and dissociation phases of all eight injections (using global fit analysis) with the use of Biaevaluation 4.0.1 software. Purified antibodies are diluted in HEPES-buffered saline for capture across goat anti-mouse IgG specific reaction surfaces. […] The association and dissociation rate constants, kₒₙ (M⁻¹s⁻¹) and koff (s⁻¹), are determined under a continuous flow rate of 25 μl/minute. Rate constants are derived by making kinetic binding measurements at different antigen concentrations ranging from 10-200 nM. The equilibrium dissociation constant (M) of the reaction between antibodies and the target antigen is then calculated from the kinetic rate constants by the following formula: KD=koff/kₒₙ. Binding is recorded as a function of time and kinetic rate constants are calculated.
# human IL-12 [2] = target: T2, human IL-12 (human, UniProt P29459 23-219; P29460 23-328); experiment: SPR (BIAcore)
# T2 construct: Human is stated for the bioassay; also called rhIL-12
# T2 sequence (looked up) 1: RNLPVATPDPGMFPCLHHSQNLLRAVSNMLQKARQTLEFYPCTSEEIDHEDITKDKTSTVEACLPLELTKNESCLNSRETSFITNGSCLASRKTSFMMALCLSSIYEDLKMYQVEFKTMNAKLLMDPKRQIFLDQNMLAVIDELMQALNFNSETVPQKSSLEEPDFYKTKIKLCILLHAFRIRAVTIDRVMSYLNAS
# T2 sequence (looked up) 2: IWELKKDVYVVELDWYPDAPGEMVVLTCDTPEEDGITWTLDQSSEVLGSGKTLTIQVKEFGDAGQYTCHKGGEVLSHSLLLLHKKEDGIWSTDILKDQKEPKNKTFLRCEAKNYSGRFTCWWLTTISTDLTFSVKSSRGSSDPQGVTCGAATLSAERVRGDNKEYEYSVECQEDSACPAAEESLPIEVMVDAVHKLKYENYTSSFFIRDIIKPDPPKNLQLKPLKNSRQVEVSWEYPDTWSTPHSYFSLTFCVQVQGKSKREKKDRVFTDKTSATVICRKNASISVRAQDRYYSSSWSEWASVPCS
# Procedure: as §1
# recombinant human IL-18 [3] = target: T1, recombinant human IL-18; experiment: cell-based or functional assay
# human IL-12 [4] = target: T2, human IL-12; experiment: cell-based or functional assay
# Recombinant Human IL-1β [5] = target: T3, Recombinant Human IL-1β (human, UniProt P01584 117-269); experiment: SPR (BIAcore); *off-rate at the limit of dissociation after 1 hour
# T3 construct: also called IL-1b
# Procedure: The BIAcore® assay (BIAcore®, Inc, Piscataway, N.J.) determines the affinity of antibodies with kinetic measurements of on-rate and off-rate constants. Binding of antibodies to a target antigen (for example, a purified recombinant target antigen) is determined by surface plasmon resonance-based measurements with a BIAcore® 1000 or 3000 instrument (BIAcore® AB, Uppsala, Sweden) using running HBS-EP (10 mM HEPES [pH 7.4], 150 mM NaCl, 3 mM EDTA, and 0.005% surfactant P20) at 25° C. […] Unreacted moieties on the biosensor surface are blocked with ethanolamine. Modified carboxymethyl dextran surface in flowcell 2 and 4 is used as a reaction surface. Unmodified carboxymethyl dextran without goat anti-mouse IgG in flow cell 1 and 3 is used as the reference surface. […] The association and dissociation rate constants, kₒₙ (M⁻¹s⁻¹) and koff (s⁻¹), are determined under a continuous flow rate of 25 μl/minute. […] The equilibrium dissociation constant (M) of the reaction between antibodies and the target antigen is then calculated from the kinetic rate constants by the following formula: KD=koff/kₒₙ. Binding is recorded as a function of time and kinetic rate constants are calculated.
# Recombinant Human IL-1β [6] = target: T3, Recombinant Human IL-1β; experiment: SPR (BIAcore)
# Procedure: as §1
# Recombinant Human IL-1β [7] = target: T3, Recombinant Human IL-1β; experiment: cell-based or functional assay
# biotin-labeled c-Met [8] = target: T4, biotin-labeled c-Met (UniProt P08581 25-932, limits assumed, biotin-labeled); experiment: ELISA, biotin-labeled c-Met detected with streptavidin-HRP; parental full antibody
# T4 sequence (P08581 25-932 limits assumed): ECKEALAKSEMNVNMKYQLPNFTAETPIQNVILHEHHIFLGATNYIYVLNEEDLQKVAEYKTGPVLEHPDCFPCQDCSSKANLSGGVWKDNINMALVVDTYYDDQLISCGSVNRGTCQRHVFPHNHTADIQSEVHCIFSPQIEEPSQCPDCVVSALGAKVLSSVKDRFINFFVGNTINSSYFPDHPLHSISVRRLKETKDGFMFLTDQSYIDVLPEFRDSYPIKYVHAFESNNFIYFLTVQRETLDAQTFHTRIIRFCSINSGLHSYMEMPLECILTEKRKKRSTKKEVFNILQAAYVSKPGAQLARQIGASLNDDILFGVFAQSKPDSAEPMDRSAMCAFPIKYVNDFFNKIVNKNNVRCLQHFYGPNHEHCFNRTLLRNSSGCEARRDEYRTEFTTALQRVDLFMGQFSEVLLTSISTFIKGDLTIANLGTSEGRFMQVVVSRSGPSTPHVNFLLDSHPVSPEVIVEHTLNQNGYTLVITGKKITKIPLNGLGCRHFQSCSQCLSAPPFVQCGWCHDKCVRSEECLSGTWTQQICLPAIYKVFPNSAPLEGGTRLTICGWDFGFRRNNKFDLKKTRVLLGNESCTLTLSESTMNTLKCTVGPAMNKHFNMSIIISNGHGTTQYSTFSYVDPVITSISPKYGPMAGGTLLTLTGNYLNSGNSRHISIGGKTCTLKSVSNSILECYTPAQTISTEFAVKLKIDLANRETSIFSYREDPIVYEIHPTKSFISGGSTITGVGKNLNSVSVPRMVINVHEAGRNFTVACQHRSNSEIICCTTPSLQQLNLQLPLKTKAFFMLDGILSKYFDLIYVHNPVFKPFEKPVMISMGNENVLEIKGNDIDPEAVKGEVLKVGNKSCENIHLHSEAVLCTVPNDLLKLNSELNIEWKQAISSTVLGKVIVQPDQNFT
# Procedure: (§2) c-Met binding ELISA was performed to characterize the antigen binding property of anti-c-Met half-Igs. 96-well ELISA plates were coated with 100 μl/well 5 μg/ml anti-mouse IgG Fc in PBS at 4° C. overnight. After 3 washes with PBS/0.05% Tween®20, the plates were blocked with 5% milk in PBS for 1 hour at room temperature. After another 3 washes with PBS/0.05% Tween®20, 100 μl c-Met antibody or half-Ig was added to each well followed by an incubation of 1 hour at room temperature. Binding biotin-labeled c-Met was detected by Streptavidin-horseradish peroxidase (KPL, Gaithersburg, Md.) and tetramethylbenzidine (Thermo Scientific, Rockford, Ill.). Final absorbances were acquired at 450 nm after stopping the reactions with 2 mol/L H₂SO₄.
# [9] = target: T5, Neonatal Fc receptor (FcRn) on CHO-FcRnGPI cells; experiment: flow cytometry on CHO-FcRnGPI cells, pH 6.4
# T5 construct: whole, on cells; also called FcRn receptor
# T5 sequence (P55899 24-297, chain 1 of 2): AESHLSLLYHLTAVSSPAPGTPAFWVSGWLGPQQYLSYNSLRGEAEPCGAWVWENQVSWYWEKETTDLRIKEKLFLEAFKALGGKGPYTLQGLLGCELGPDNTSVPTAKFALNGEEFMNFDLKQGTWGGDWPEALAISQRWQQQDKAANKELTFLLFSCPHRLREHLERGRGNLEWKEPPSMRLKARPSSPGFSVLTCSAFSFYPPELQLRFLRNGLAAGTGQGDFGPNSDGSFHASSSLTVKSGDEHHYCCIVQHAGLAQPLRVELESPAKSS
# T5 sequence (P61769 21-119, chain 2 of 2, further chain): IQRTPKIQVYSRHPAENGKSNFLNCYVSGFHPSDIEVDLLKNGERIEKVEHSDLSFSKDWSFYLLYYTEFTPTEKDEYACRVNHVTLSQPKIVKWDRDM
# Procedure: (§3) CHO-FcRnGPI cells (Stable FcRn receptor expressor) and CHO-pBudl l cells (non-FcRn expressor) were aliquotted into 96-well plates at 1×10⁵ cells/well. Cells were resuspended in 150 μl FACS buffer. Anti-c-Met Ab and half-Ig binding proteins were diluted to 100 μg/ml in FACS buffer pH 6.4 and pH 7.4. 30 μl of diluted antibody or half-Ig binding protein was added to each well and incubated on ice for 1 hour. Following 2 washes with FACS buffer, 50 μl of secondary antibody R-phycoerythrin-conjugated AfiniPure F(ab′)₂ Fragment goat anti-human IgG (Jackson ImmunoResearch®, West Grove, Pa.) diluted in FACS buffer pH 6.4 or pH7.4 was added. The mixture was incubated for 30 min on ice. The cells were resuspended in 100 μl PBS with 1% FBS (Invitrogen®, Carlsbad, Calif.) and 2 μg/ml propidium iodide (Invitrogen®, Carlsbad, Calif.) of the corresponding pH. Final FACS data were acquired on a FACScan (Becton Dickinson, Franklin Lakes, N.J.).
# [10] = target: T5, Neonatal Fc receptor (FcRn) on …; experiment: flow cytometry on CHO-FcRnGPI cells, pH 6.4; remark: listed apart in the source
# Procedure: as §3
# biotin-labeled c-Met [11] = target: T4, biotin-labeled c-Met; experiment: ELISA, biotin-labeled c-Met detected with streptavidin-HRP; half-Ig (cMet-Mut6)
# Procedure: as §2
binder,measurement,setting,value
B1,Kd,recombinant human IL-18 [1],0.00044 µM
same,koff,recombinant human IL-18 [1],5.9e-05 s⁻¹
same,kon,recombinant human IL-18 [1],130000 M⁻¹ s⁻¹
same,Kd,human IL-12 [2],0.00013 µM
same,koff,human IL-12 [2],5.1e-05 s⁻¹
same,kon,human IL-12 [2],400000 M⁻¹ s⁻¹
same,Neutralization of IL-18 IC50 (nM); IFN-γ release from KG-1 cells,recombinant human IL-18 [3],0.918 nM
same,Neutralization of IL-12 IC50 (nM); IFN-γ release from PHA blast cells,human IL-12 [4],12.5 nM
B2,koff,Recombinant Human IL-1β [5],6.4e-06 s⁻¹
same,Kd,Recombinant Human IL-1β [6],0.053 nM
same,kon,Recombinant Human IL-1β [6],120000 M⁻¹ s⁻¹
same,IL-1β Neutralization Assay EC50 nM; IL-8 release from MRC5 cells,Recombinant Human IL-1β [7],0.155 nM
B3,koff,Recombinant Human IL-1β [5],4.9e-06 s⁻¹
same,Kd,Recombinant Human IL-1β [6],0.028 nM
same,kon,Recombinant Human IL-1β [6],170000 M⁻¹ s⁻¹
B4,EC50,biotin-labeled c-Met [8],0.00036 µM
same,EC50,[9],0.0518 µM
B5,EC50,[10],3290 µM
B6,EC50,[10],2.98 µM
B7,EC50,[10],0.63 µM
B8,EC50,[10],4700 µM
B9,EC50,[10],1980 µM
B10,EC50,[9],0.035 µM
B11,EC50,[10],1.45 µM
B12,EC50,[10],1.09 µM
B13,EC50,[10],293 µM
B14,EC50,[9],0.015 µM
B15,EC50,[10],1.23 µM
B16,EC50,[10],1.13 µM
B17,EC50,biotin-labeled c-Met [11],0.00046 µM
